Experimental data taken from PMC3209416.
Changes are numbered by the printed parent chain. Numbers in names are those of the source.

Substrate: CCCCC(O)CC(=O)C(=O)O
Assay: purified protein
Type: biochemical, Thermotoga maritima
Conditions: retro-aldol cleavage, HEPES 100 mM pH 7.5, 34 °C

B1: T. maritima KDPG aldolase (wt-TMA; TM KDPG aldolase) (Thermotoga maritima MSB8; N150I) (protein)
chain: MKMEELFKKHKIVAVLRANSVEEAKEKALAVFEGGVHLIEITFTVPDADTVIKELSFLKEKGAIIGAGTVTSVEQCRKAVESGAEFIVSPHLDEEISQFCKEKGVFYMPGVMTPTELVKAMKLGHTILKLFPGEVVGPQFVKAMKGPFPIVKFVPTGGVNLDNVCEWFKAGVLAVGVGSALVKGTPDEVREKAKAFVEKIRGCTE
B1 was tested, and the Km (mutant TM 8) was 49 ± 19 mM, the kcat (mutant TM 8) was 1.2 ± 0.3 s⁻¹ and the kcat/Km (mutant TM 8) was 25 ± 5 M⁻¹ s⁻¹.

B2: T. maritima KDPG aldolase (wt-TMA; TM KDPG aldolase) (Thermotoga maritima MSB8; G34R/R190I/V172A) (protein)
chain: B1 chain with G34R, I150N, V172A, R190I
In the case of B2, the Km (mutant TM 1) is reported as 9 ± 2 mM, the kcat (mutant TM 1) is reported as 0.07 ± 0.01 s⁻¹ and the kcat/Km (mutant TM 1) is reported as 9.3 ± 1.8 M⁻¹ s⁻¹.

B3: T. maritima KDPG aldolase (wt-TMA; TM KDPG aldolase) (Thermotoga maritima MSB8; G83E/K9T) (protein)
chain: B1 chain with K9T, G83E, I150N
Protein B3 has a Km (mutant TM 2) of 90 ± 20 mM, a kcat (mutant TM 2) of 0.5 ± 0.1 s⁻¹ and a kcat/Km (mutant TM 2) of 5.5 ± 1 M⁻¹ s⁻¹.

B4: T. maritima KDPG aldolase (wt-TMA; TM KDPG aldolase) (Thermotoga maritima MSB8; A30V) (protein)
chain: B1 chain with A30V, I150N
B4 was tested, and the Km (mutant TM 5) was 14 ± 5 mM, the kcat (mutant TM 5) was 0.75 ± 0.1 s⁻¹ and the kcat/Km (mutant TM 5) was 54 ± 10 M⁻¹ s⁻¹.

B5: T. maritima KDPG aldolase (wt-TMA; TM KDPG aldolase) (Thermotoga maritima MSB8; V136M) (protein)
chain: B1 chain with V136M, I150N
In the case of B5, the Km (mutant TM 4) is reported as 23 ± 4 mM, the kcat (mutant TM 4) is reported as 0.36 ± 0.02 s⁻¹ and the kcat/Km (mutant TM 4) is reported as 16 ± 2 M⁻¹ s⁻¹.

B6: T. maritima KDPG aldolase (wt-TMA; TM KDPG aldolase) (Thermotoga maritima MSB8; I52F/T185A/V135M) (protein)
chain: B1 chain with I52F, V135M, I150N, T185A
Work on B6 yielded a Km (mutant TM 6) of 8 ± 3 mM, a kcat (mutant TM 6) of 0.13 ± 0.02 s⁻¹ and a kcat/Km (mutant TM 6) of 17 ± 6 M⁻¹ s⁻¹.
